For this assay, the target named is T1, FcγRIIA protein (UniProt P12318 36-218).
T1 construct: also called CD32a
T1 sequence: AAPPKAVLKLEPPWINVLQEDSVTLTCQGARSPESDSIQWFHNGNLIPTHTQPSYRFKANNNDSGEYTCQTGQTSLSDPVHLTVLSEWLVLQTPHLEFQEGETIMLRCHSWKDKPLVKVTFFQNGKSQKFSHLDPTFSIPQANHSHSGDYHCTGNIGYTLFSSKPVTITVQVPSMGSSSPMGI
As to the kind of experiment: BLI, multi-concentration (5000 to 312.5 nM of the Fc variant). Background: In BLI a coated tip is dipped into the sample, and binding shifts an interference pattern.

B1: Seq2-Sf9 (murine IgG1 Fc variant with three mutations, alanine at positions 223, 228 and 230, expressed in Sf9 insect cells) (other)
chain: VDKKIVPADCGCAPCICAVPEVSSVFIFPPKPKDVLTITLTPKVTCVVVDISKDDPEVQFSWFVDDVEVHTAQTQPREEQFNSTFRSVSELPIMHQDWLNGKEFKCRVNSAAFPAPIEKTISKTKGRPKAPQVYTIPPPKEQMAKDKVSLTCMITDFFPEDITVEWQWNGQPAENYKNTQPIMDTDGSYFVYSKLNVQKSNWEAGNTFTCSVLHEGLHNHHTEKSLSHSPGL
notes: Fc fragment alone, expressed from the pFastBacHTa-gp64 vector in Sf9 cells and purified by Protein A; about 26 kDa on SDS-PAGE; also called mouse Fc with three mutations
As usually defined, the Kd is the equilibrium constant for the complex coming apart. On to B1, for which the dissociation constant (Kd) was 789 nM.

B2: Seq3-Sf9 (murine IgG1 Fc variant with five mutations, alanine at 223, 228 and 230, leucine at 330, glutamic acid at 332, expressed in Sf9 insect cells) (other)
chain: VDKKIVPADCGCAPCICAVPEVSSVFIFPPKPKDVLTITLTPKVTCVVVDISKDDPEVQFSWFVDDVEVHTAQTQPREEQFNSTFRSVSELPIMHQDWLNGKEFKCRVNSAAFPLPEEKTISKTKGRPKAPQVYTIPPPKEQMAKDKVSLTCMITDFFPEDITVEWQWNGQPAENYKNTQPIMDTDGSYFVYSKLNVQKSNWEAGNTFTCSVLHEGLHNHHTEKSLSHSPGL
notes: Fc fragment alone, expressed from the pFastBacHTa-gp64 vector in Sf9 cells and purified by Protein A; about 26 kDa on SDS-PAGE; also called mouse Fc with five mutations
With B2, the dissociation constant (Kd) turned out to be 450 nM.

The values are drawn from patent US20250144202A1 (KAIMI BIOMEDICINE CHENGDU, published 2025).
